Data set [1] concerns the molecule itself. The data set can be described thus: dynamic light scattering.
Data set [2] deals with the molecule itself. Kind of data set: dynamic light scattering. This is another data set of the same source.
Data set [3] concerns the molecule itself. Kind of data set: negative staining electron microscopy.
Data set [4] concerns the molecule itself. Kind of data set: crystal structure.

Here are results for 2 proteins from publication doi:10.1101/2020.11.26.400622 (bioRxiv, 2020).

One may read the stoichiometry N as the number of molecules, sites or subunits per partner or assembly.

B1: circularly permuted human Taspase1 cp-Taspase1_(α41-233/β) (enzyme)
chain: TVGAVVVDHEGNVAAAVSSGGLALKHPGRVGQAALYGCGCWAENTGAHNPYSTAVSTSGCGEHLVRTILARECSHALQAEDAHQALLETMQNKFISSPFLASEDGVLGGVIVLRSCRCSAEPDSSQNKQTLLVEFLWSHTTESMCVGYMSAQDGKAKTHISRLPPGAVAGQSVAIEGGVCRLEGSGSGGFVLVHAGAGYHSESKAKEYKHVCKRACQKAIEKLQAGALATDAVTAALVELEDSPFTNAGMGSNLNLLGEIECDASIMDGKSLNFGAVGALSGIKNPVSVANRLLCEGQKGKLSAGRIPPCFLVGEGAYRWAVDHGIPSCPPNIMTTRFSLAAFKRNKRKLELAERVDTDFMQLKKRRQSSEKENDSGTLD
With B1, the “stoichiometry N” value in data set [1] is 4; in data set [2] it was 6; in data set [3] it was 2.

B2: circularly permuted human Taspase1 cp-Taspase1_(α41-183/β) (enzyme)
chain: TVGAVVVDHEGNVAAAVSSGGLALKHPGRVGQAALYGCGCWAENTGAHNPYSTAVSTSGCGEHLVRTILARECSHALQAEDAHQALLETMQNKFISSPFLASEDGVLGGVIVLRSCRCSAEPDSSQNKQTLLVEFLWSHTTESMCVGYMSAQDGKAKTHISRLPPGAVAGQSVAIEGGVCRLEGSGSGGFVLVHAGAGYHSESKAKEYKHVCKRACQKAIEKLQAGALATDAVTAALVELEDSPFTNAGMGSNLNLLGEIECDASIMDGKSLNFGAVGALSGIKNPVSVANRLLCEGQKGKLSAGRIPPCFLVGEGAYRWAVDHGIPSCP
As to B2, the binding result in data set [4] is recorded as “binds”.
